Tests used:
[1] = tested on: endogenous Id2 in SK-N-SH cells; assay: Subcellular localization of endogenous Id2 after ectopic Flag-ENH (immunofluorescence); assay type: cell-based, human; conditions: SK-N-SH transiently transfected with Flag-ENH (FIG. 4B)
Protocol: Quantitative Analysis of Subcellular Localization of Id2 and siRNA Experiments: SK-N-SH-Flag-Id2 cells untreated or treated with RA for 48 h were fixed in 4% paraformaldehyde. Flag-Id2 and endogenous ENH were immunostained by using Flag-M2 (Sigma) and ENH antibodies, respectively. SK-N-SH cells were transfected with vector or p3XFlag-ENH and immunostained by using Flag-M2 and Id2 (Zymed) antibodies. For silencing of ENH, ENH siRNA (siGenome Smartpool reagent M-006930-00) and control, nontargeting (siGenome Smartpool reagent D-001206-13) siRNA mixtures were purchased from Dharmacon. SK-N-SH cells stably expressing Flag-Id2 were treated with vehicle control or RA for 48 h and transfected with 60 nM siRNAs by using Lipofectamine 2000 (Invitrogen). Thirty-six hours after transfection cells were fixed in 4% paraformaldehyde and immunostained by using Flag-M2 antibodies. Parallel cultures were analyzed by Western blot. Secondary antibodies were FITC- or Cy3-conjugated anti-rabbit and Cy3-conjugated anti-mouse (Jackson ImmunoResearch). Nuclei were counterstained with DAPI. Slides were mounted in 90% glycerol in PBS and analyzed on an Olympus epifluorescence microscope. The percentage of cells displaying Id2 staining in the nucleus was scored by counting at least 500 cells from triplicate samples. […]

[2] = tested on: SK-N-SH neuroblastoma cell line; assay: Colony-forming assay; assay type: cell-based, human; conditions: transfected with pcDNA3-ENH, G418 selection 14 days
Description: (§1) Cell Culture, Colony-Forming Assay, and Transfection: Neuroblastoma cell lines SK-N-SH, IMR-32, and LAN-1, the glioma cell lines SF188, and COS-1 cells were maintained in 10% FBS (Sigma) in DMEM (Cambrex). For colony-forming assay cells were transfected with pcDNA3-ENH or vector control. Cells were selected in G418 for 14 days, and colonies were scored in triplicate cultures. Cells were transfected by using Lipofectamine 2000 according to the manufacturer's instructions.
(§2) A well known function of Id2 is the ability to enhance cell proliferation by promoting the transition from G1 to S phase of the cell cycle. Therefore, it was asked whether ENH inhibited cell proliferation and opposed Id2-mediated entry into S phase. […] Next SK-N-SH was transfected with ENH and Id2 in the presence of a GFP expression plasmid and measured the rate of DNA synthesis by incorporation of BrdU of the successfully transfected, GFP-positive cells.

SF188 glioma cell line = assay: Colony-forming assay; assay type: cell-based, human; conditions: transfected with pcDNA3-ENH, G418 selection 14 days
Description: as §1, §2

[3] = tested on: IMR-32 neuroblastoma cell line; assay: Colony-forming assay; assay type: cell-based, human; conditions: transfected with pcDNA3-ENH, G418 selection 14 days
Description: as §1, §2

GST-Id2 = biological target: T1, GST-Id2 (Homo sapiens, UniProt Q02363); assay: GST pull-down assay with GST-Id2; assay type: binding; conditions: in vitro-translated 35S-labeled proteins, autoradiography (FIG. 2B)
T1 construct: made in house; host or cells: E. coli BL21 Star (Invitrogen)
T1 sequence (Q02363 1-134): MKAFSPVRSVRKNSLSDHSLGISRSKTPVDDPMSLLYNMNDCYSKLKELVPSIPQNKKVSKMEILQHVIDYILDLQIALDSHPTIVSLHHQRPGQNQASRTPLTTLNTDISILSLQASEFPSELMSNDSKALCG
Protocol: (§3) GST Pull-Down Assay, Western Blot, and Coimmunoprecipitation: GST fusion proteins were purified from BL21 Star (Invitrogen). GST pull-down assay was performed as described in lavarone, A. et al., (1994), Genes Dev., 8:1270-1284. For Wetern blot analysis, cellular pellets were lysed in ice-cold RIPA buffer (50 mM Tris, pH 7.5/150 mM NaCl/1% Nonidet P-40/0.5% sodium deoxycholate/0.1% SDS) containing Complete Mini protease inhibitor pellet (Roche) and 1 mM PMSF. Lysates were electrophoresed on SDS/PAGE gels and transferred to nitrocellulose membrane (Amersham Pharmacia Biotech). Membranes were stained with antibodies against ENH, Id2 (Santa Cruz Biotechnology), and α-tubulin (Sigma), and blots were developed by using ECLWestem Blotting Detection System (Amersham Pharmacia Biotech). The anti-ENH antibody is a rabbit polyclonal that was produced in collaboration with Zymed against a peptide that is fully conserved in the mouse sequence (KQQNGPPRKHI (SEQ ID NO:1)). Coimmunoprecipitation of Id2 and ENH from cells transfected with pcDNA.3-Id2 and p3XFlag-ENH was performed as described (lavarone, A. et al., (2004), Nature, 432:1040-1045).
To validate the specificity of the binding between ENH and Id2 and identify the domains that mediate this interaction, GST fusion proteins and in vitro-translated proteins in pull-down assays.

GST-Id1 = biological target: T2, GST-Id1 (Homo sapiens, UniProt P41134); assay: GST pull-down assay with GST-Id1; assay type: binding; conditions: in vitro-translated 35S-labeled ENH (FIG. 2B Right)
T2 construct: made in house; host or cells: E. coli BL21 Star (Invitrogen)
T2 sequence (P41134 1-155): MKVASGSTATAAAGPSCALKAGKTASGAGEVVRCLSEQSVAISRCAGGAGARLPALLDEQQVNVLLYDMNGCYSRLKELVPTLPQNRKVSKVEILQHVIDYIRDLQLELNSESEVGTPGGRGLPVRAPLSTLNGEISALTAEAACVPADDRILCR
Protocol: as §3
Given the high homology among the HLH domains of the three Id proteins, it was asked whether Id1 and Id3 could also bind ENH in this assay. Indeed, both GST-Id1 and GST-Id3 bound to full-length ENH (FIG. 2B Right).

[4] = tested on: Id2 inhibition of E47-mediated transcription; assay: E-box-luciferase reporter assay; assay type: cell-based, human; conditions: E-box-luc with E47, Id2 and increasing amounts of ENH (0.375, 0.5, 0.625 μg); FIG. 6A
Protocol: Luciferase Assay: The luciferase reporter construct 5xE-box-luciferase (Lasorella, A. et al., (1996) Mol. Cell. Biol., 16:2570-2578) was cotransfected with pcDNA.3-E47 and pcDNA.3 vector or pcDNA.3-Id2 and pcDNA.3-ENH into SK-N-SH cells. pCMV-β-gal was cotransfected for normalization. Twenty-four hours later luciferase and β-galactosidase activities were measured as described (Lasorella, A. et al., (2000) Nature, 407:592-598).
To test the hypothesis that ENH restrains the inhibitory effects of Id2 on bHLH-mediated transcription by acting as a cytoplasmic retention factor for Id2, luciferase reporter assays were performed with five multimerized E-boxes driving expression of luciferase (E-box-luc). The E-box-luc plasmid was transfected in the presence of mammalian expression vectors for the ubiquitously expressed bHLH protein E47, Id2, and increasing amounts of ENH. Id2 inhibition of E47-mediated transcription was relieved by coexpression of ENH in a dose-dependent manner (FIG. 6A).

B1: ENH: actin cytoskeleton-associated PDZ-LIM protein ENH (Enigma Homologue), full-length, SEQ ID NO:4; also used Flag-tagged (protein, listed as Homo sapiens)
chain: MSNYSVSLVGPAPWGFRLQGGKDFNMPLTISSLKDGGKAAQANVRIGDVVLSIDGINAQGMTHLEAQNKIKGCTGSLNMTLQRASAAPKPEPVPVQKGEPKEVVKPVPITSPAVSKVTSTNNMAYNKAPRPFGSVSSPKVTSIPSPSSAFTPAHATTSSHASPSPVAAVTPPLFAASGLHANANLSADQSPSALSAGKTAVNVPRQPTVTSVCSETSQELAEGQRRGSQGDSKQQNGPPRKHIVERYTEFYHVPTHSDASKKRLIEDTEDWRPRTGTTQSRSFRILAQITGTEHLKESEADNTKKANNSQEPSPQLASSVASTRSMPESLDSPTSGRPGVTSLTTAAAFKPVGSTGVIKSPSWQRPNQGVPSTGRISNSATYSGSVAPANSALGQTQPSDQDTLVQRAEHIPAGKRTPMCAHCNQVIRGPFLVALGKSWHPEEFNCAHCKNTMAYIGFVEEKGALYCELCYEKFFAPECGRCQRKILGEVINALKQTWHVSCFVCVACGKPIRNNVFHLEDGEPYCETDYYALFGTICHGCEFPIEAGDMFLEALGYTWHDTCFVCSVCCESLEGQTFFSKKDKPLCKKHAHSVNF
With B1 the “subcellular localization of endogenous Id2” value [1] was “translocation of Id2 to the cytoplasm”, the colony formation [2] was “markedly inhibited” and the colony formation (SF188 glioma cell line) was “markedly inhibited”. For the same molecule, the colony formation [3] was “markedly inhibited”, the “binding of GST-Id2 to ENH constructs” value (GST-Id2) was “bound efficiently” and the “binding of GST-Id1 to ENH” value (GST-Id1) was “bound”. For the same molecule, the “Id2 inhibition of E47-mediated transcription (luciferase activity)” value [4] was “relieved”.
